# Laboratory results: patent US20210107983A1 (Boehringer Ingelheim, published 2021)
# Where a chain is given by its changes, count along the chain named.
# T1: Cyno B7H6-His (cynomolgus monkey)
# T1 construct: also called CyB7H6; cyB7-H6
# T1 chain: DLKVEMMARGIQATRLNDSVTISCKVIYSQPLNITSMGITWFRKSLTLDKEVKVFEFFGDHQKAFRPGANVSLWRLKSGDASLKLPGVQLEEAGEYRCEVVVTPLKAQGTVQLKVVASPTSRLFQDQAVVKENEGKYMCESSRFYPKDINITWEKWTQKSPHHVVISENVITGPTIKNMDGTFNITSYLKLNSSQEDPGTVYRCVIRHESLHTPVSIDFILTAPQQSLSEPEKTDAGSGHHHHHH
# B1: B7H6#14/CD3#3 (bispecific antibody, human IgG1, kappa, L234A L235A)
# chain 1: DIQMTQSPSSLSASVGDRVTITCKASQNVGKYVAWYQQKPGKAPKSLIYSASNRYDGVPSRFSGSGSGTDFTLTISSLQPEDFATYFCQQYISYPLTFGAGTKLEIKRTVAAPSVFIFPPSDEQLKSGTASVVCLLNNFYPREAKVQWKVDNALQSGNSQESVTEQDSKDSTYSLSSTLTLSKADYEKHKVYACEVTHQGLSSPVTKSFNRGECGGGGSEGKSSGSGSESKSTEGKSSGSGSESKSTGGGGSQVQLVQSGAEVKKPGASVKVSCKASGYTFTNYWMNWMKQAPGQGLEWIGGIYLNGDSTDYNEKFKGKVTMTVDTSTSTVYMELSSLRSEDTAVYYCTRRGDYFGDFWGQGTLVTVSSASTKGPSVFPLAPSSKSTSGGTAALGCLVKDYFPEPVTVSWNSGALTSGVHTFPAVLQSSGLYSLSSVVTVPSSSLGTQTYICNVNHKPSNTKVDKRVEPKSCDKTHTCPPCPAPEAAGGPSVFLFPPKPKDTLMISRTPEVTCVVVDVSHEDPEVKFNWYVDGVEVHNAKTKPREEQYNSTYRVVSVLTVLHQDWLNGKEYKCKVSNKALPAPIEKTISKAKGQPREPQVYTLPPSREEMTKNQVSLWCLVKGFYPSDIAVEWESNGQPENNYKTTPPVLDSDGSFFLYSKLTVDKSRWQQGNVFSCSVMHEALHNHYTQKSLSLSPG
# chain 2: not shown
# notes: scFab-Fc heterodimer
# B2: B7H6#21/CD3#1 (bispecific antibody, human IgG1, kappa, lambda, L234A L235A)
# chain 1: B1 chain 1 with N283S, N306S, D308E
# chain 2: EAVVTQEPSLTVSPGGTVTLTCRSSTGAVTTSNYANWVQEKPGQLPRGLIGGTNKRAPWVPARFSGSLLGGKAALTLSGAQPEDEAEYFCALWYSNLWVFGGGTKLTVLGQPKAAPSVTLFPPSSEELQANKATLVCLISDFYPGAVKVAWKADGSPVNTGVETTTPSKQSNNKYAASSYLSLTPEQWKSHRSYSCQVTHEGSTVEKTVAPAECSGGGGSEGKSSGSGSESKSTEGKSSGSGSESKSTGGGGSEVQLVESGGGLVQPGGSLKLSCAASGFTFNTYAMNWVRQAPGKGLEWVARIRSKYNNYATYYADSVKDRFTISRDDSKNTAYLQMNNLKTEDTAVYYCVRHGNFGNSYVSWFAYWGQGTLVTVSAASTKGPSVFPLAPSSKSTSGGTAALGCLVKDYFPEPVTVSWNSGALTSGVHTFPAVLQSSGLYSLSSVVTVPSSSLGTQTYICNVNHKPSNTKVDKRVEPKSCDKTHTCPPCPAPEAAGGPSVFLFPPKPKDTLMISRTPEVTCVVVDVSHEDPEVKFNWYVDGVEVHNAKTKPREEQYNSTYRVVSVLTVLHQDWLNGKEYKCKVSNKALPAPIEKTISKAKGQPREPQVYTLPPSREEMTKNQVSLSCAVKGFYPSDIAVEWESNGQPENNYKTTPPVLDSDGSFFLVSKLTVDKSRWQQGNVFSCSVMHEALHNRFTQKSLSLSPG
# notes: scFab-Fc heterodimer, one B7H6 chain and one CD3 chain
# B3: B7H6#18/CD3#1 (bispecific antibody, human IgG1, kappa, lambda, L234A L235A)
# chain 1: B1 chain 1 with G57A, A84T, F87Y, N283S, K290R, I300M, N306S, K319R
# chain 2: B2 chain 2
# notes: as for B2
# B4: B7H6#22/CD3#1 (bispecific antibody, human IgG1, kappa, lambda, L234A L235A)
# chain 1: B1 chain 1 with G57A, N283S, N306S
# chain 2: B2 chain 2
# notes: as for B2
# B5: B7H6#19/CD3#1 (bispecific antibody, human IgG1, kappa, lambda, L234A L235A)
# chain 1: B1 chain 1 with A84T, F87Y, N283S, M289V, I300M, N306S, D308E, V320A
# chain 2: B2 chain 2
# notes: as for B2
# B6: B7H6#24/CD3#1 (bispecific antibody, human IgG1, kappa, lambda, L234A L235A)
# chain 1: B1 chain 1 with G57A, A84T, F87Y, K290R, I300M, N306S, K319R
# chain 2: B2 chain 2
# notes: as for B2
# B7: B7H6#23/CD3#1 (bispecific antibody, human IgG1, kappa, lambda, L234A L235A)
# chain 1: B1 chain 1 with G57A, N283S, N306S, D308E
# chain 2: B2 chain 2
# notes: as for B2
# B8: B7H6#20/CD3#1 (bispecific antibody, human IgG1, kappa, lambda, L234A L235A)
# chain 1: B1 chain 1 with G57A, A84T, F87Y, N283S, M289V, I300M, N306S, V320A
# chain 2: B2 chain 2
# notes: as for B2
# B9: B7H6#16/CD3#1 (bispecific antibody, human IgG1, kappa, lambda, L234A L235A)
# chain 1: B1 chain 1 with A84T, F87Y, N283S, K290R, I300M, N306S, D308E, K319R
# chain 2: B2 chain 2
# notes: as for B2
# B10: B7H6#15/CD3#1 (bispecific antibody, human IgG1, kappa, lambda, L234A L235A)
# chain 1: B1 chain 1 with A84T, F87Y, K290R, I300M, N306S, K319R
# chain 2: B2 chain 2
# notes: as for B2
# Biological target: T1, Cyno B7H6-His
# Assay: SPR, binder captured on Protein A/G, B7H6 analyte
# Procedure: (§1) To determine the affinity of human and cyno B7H6 and human B7H1 to B7H6/CD3 binding proteins, the experiment was performed on a Biacore™ 8K instrument (GE Healthcare Life Sciences). Briefly, the B7H6/CD3 binding protein was captured via Protein A/G. The running buffer for this experiment and all serial dilutions were prepared in HBS-EP+. The CM5 sensor chip was activated with an equal mixture of EDC/NHS across both flow cells for 420 s at a flow rate of 10 μL/min and immobilized with recombinant Protein A/G (50 μg/ml in 10 mM NaOAc, pH 4.5) across all flow cells for 420 s at a flow rate of 10 μL/min resulting in about 2500 RU of Protein A/G on the surface. The sensor chip was deactivated with 1M ethanolamine-HCl across all flow cells for 420 s at a flow rate of 10 μL/min.
# (§2) About 700 RU of the B7H6/CD3 binding protein was captured on flow cell 2 of the Protein A/G surface for 60 s at a flow rate of 10 μL/min. The analytes HuB7H6, CyB7H6 and HuB7H1 were injected across both flow cells over captured B7H6/CD3 binding protein for 300 s at a flow rate of 30 μL/min with a dissociation of 1200 s. The concentrations of HuB7H6 and CyB7H6 were 0 nM, 6.25 nM, 12.5 nM, 25 nM, 50 nM and 100 nM. The concentrations of HuB7H1 were 0 nM and 1 μM. The surface was regenerated by injecting 10 mM glycine-HCl, pH 1.5 for 20 s at a flow rate of 30 μL/min across both flow cells.
# (§3) The reference flow cell 1 (interactions with sensor surface) and blank (HBS-EP+ or 0 nM analyte) were subtracted from the raw data.
row,Kd [nM],Binder
1,1.1,B1
2,1.4,B2
3,3.3,B3
4,1.4,B4
5,5.1,B5
6,3.1,B6
7,1.2,B7
8,4.9,B8
9,7.2,B9
10,2.2,B10

# Biological target: T2, Cyno CD3 E+G HuFc-6xHis (cynomolgus monkey)
# T2 construct: also called CyCD3E+G-hFc; cyCD3
# T2 sequence (chain, as listed by the source limits assumed): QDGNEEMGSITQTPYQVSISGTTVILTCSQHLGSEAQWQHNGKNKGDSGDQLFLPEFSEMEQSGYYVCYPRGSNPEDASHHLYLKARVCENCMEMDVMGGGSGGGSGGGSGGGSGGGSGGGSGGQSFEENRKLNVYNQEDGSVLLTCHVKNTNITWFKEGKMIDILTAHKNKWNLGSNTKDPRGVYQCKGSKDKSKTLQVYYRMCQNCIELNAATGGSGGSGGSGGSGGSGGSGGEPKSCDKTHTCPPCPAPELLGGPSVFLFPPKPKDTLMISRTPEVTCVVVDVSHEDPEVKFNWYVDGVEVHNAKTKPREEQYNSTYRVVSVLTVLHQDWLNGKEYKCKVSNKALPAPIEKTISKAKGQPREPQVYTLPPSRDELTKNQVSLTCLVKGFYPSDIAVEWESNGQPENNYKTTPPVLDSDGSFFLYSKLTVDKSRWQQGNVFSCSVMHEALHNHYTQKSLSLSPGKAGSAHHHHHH
# Assay: SPR, CD3E+G-hFc immobilized, binder analyte
# Procedure: (§4) To determine the affinity of the B7H6/CD3 binding protein to human and cyno CD3E+G-hFc, the experiment was performed on a Bio-Rad ProteOn™ XPR36 instrument. Briefly, HuCD3E+G-hFc and CyCD3E+G were amine-coupled on a ProteOn™ GLM sensor chip (Bio-Rad) and the B7H6/CD3 binding protein was flowed over the immobilized surface. The running buffer for this experiment and all serial dilutions were prepared in HBS-EP+. The GLM sensor chip was normalized according to Bio-Rad's recommendations. The sensor chip was activated with an equal mixture of EDC/s-NHS in the horizontal direction for 300 s at a flow rate of 30 μL/min HuCD3E+G-hFc was immobilized in the vertical direction at 0.4 μg/mL, 0.2 μg/mL and 0.1 μg/mL in 10 mM acetate pH 4.5 to L1, L2 and L3, respectively, for 300 s at a flow rate of 30 μL/min resulting in about 100 RU of HuCD3E+G-hFc on L1, 40 RU of HuCD3E+G-hFc on L2 and 0 RU of HuCD3E+G-hFc on L3. CyCD3E+G-hFc was immobilized in the vertical direction at 0.4 μg/mL, 0.2 μg/mL and 0.1 μg/mL in 10 mM acetate pH 4.5 to L4, L5 and L6, respectively, for 300 s at a flow rate of 30 μL/min resulting in about 385 RU of […], 170 RU of CyCD3E+G-hFc on L5 and 50 RU of CyCD3E+G-hFc on L6. The sensor chip was deactivated with 1M ethanolamine-HCl in the horizontal direction for 300 s at a flow rate of 30 μL/min.
# (§5) The B7H6/CD3 binding protein analyte was injected horizontally over the immobilized surface for 300 s at a flow rate of 30 μL/min with a dissociation of 600 s. The concentrations of the B7H6/CD3 binding protein used were 0 nM, 1.2 nM, 3.7 nM, 11.1 nM, 33.3 nM and 100 nM.
# (§6) The interspot (interactions with sensor surface) and blank (HBS-EP+ or 0 nM analyte) were subtracted from the raw data.
row,Kd [nM],Binder
1,7.1,B1

# Biological target: T3, Human CD3 E+G HuFc-6xHis (human)
# T3 construct: also called HuCD3E+G-hFc; huCD3
# T3 sequence (chain, as listed by the source limits assumed): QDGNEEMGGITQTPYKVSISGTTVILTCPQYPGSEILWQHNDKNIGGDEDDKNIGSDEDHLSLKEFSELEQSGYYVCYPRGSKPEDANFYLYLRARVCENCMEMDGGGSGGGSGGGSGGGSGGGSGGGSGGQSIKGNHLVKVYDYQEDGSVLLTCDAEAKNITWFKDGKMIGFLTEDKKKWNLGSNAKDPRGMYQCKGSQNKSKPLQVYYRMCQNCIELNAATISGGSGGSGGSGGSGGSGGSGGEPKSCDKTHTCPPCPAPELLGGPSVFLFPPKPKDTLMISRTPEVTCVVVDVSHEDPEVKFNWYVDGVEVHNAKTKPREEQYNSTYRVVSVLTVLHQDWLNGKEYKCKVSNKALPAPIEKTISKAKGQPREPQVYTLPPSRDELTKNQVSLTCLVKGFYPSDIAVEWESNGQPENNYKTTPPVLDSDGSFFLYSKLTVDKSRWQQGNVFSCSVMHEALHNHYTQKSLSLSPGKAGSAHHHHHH
# Assay: SPR, CD3E+G-hFc immobilized, binder analyte
# Procedure: as §4, §5, §6
row,Kd [nM],Binder
1,4.8,B1
2,4.4,B2
3,3.9,B3
4,5.1,B4
5,4,B5
6,7.8,B6
7,5.5,B7
8,4,B8
9,3.7,B9
10,3.8,B10

# Biological target: T1, Cyno B7H6-His
# Assay: ratio of SPR KDs cyno/human
# Procedure: as §2, §3, §5
row,cy/hu B7-H6,Binder
1,0.9,B1
2,0.4,B2
3,2.3,B3
4,1,B4
5,3.1,B5
6,1.7,B6
7,0.9,B7
8,4.6,B8
9,2.3,B9
10,2.8,B10

# Biological target: T2, Cyno CD3 E+G HuFc-6xHis
# Assay: ratio of SPR KDs cyno/human
# Procedure: as §2, §3, §5
row,cy/hu CD3,Binder
1,1.5,B1

# Biological target: T4, trypsin inhibitor from Glycine max soybean (Glycine max (soybean))
# T4 construct: unrelated negatively charged protein, amine-coupled to the chip
# T4 sequence (P01070 25-205): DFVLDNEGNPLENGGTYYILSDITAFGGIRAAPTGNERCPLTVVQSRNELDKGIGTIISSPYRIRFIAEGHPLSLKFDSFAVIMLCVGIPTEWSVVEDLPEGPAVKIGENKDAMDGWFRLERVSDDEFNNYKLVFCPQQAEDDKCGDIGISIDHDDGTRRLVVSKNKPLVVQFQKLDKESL
# Assay: SPR, 1 µM binder over immobilized trypsin inhibitor
# Procedure: (§7) The experiment was performed on a Biacore® T200 SPR system (GE Healthcare Life Sciences). The dilution, surface preparation, and binding experiments were performed at 25° C. in 1×HBS-EP buffer prepared from 10×HBS-EP. The flow rate for both the immobilization protocol and binding experiment was at 5 μL/min.
# (§8) To prepare the surface for the non-specific binding experiment, chicken egg white lysozyme and trypsin inhibitor from Glycine max soybean were coupled manually to a Biacore® series S CM5 sensor chip (GE Healthcare sciences) with the surface density of 3000-5000 RU using the amine coupling kit according to the manufacture instructions. Samples were prepared at 1 μM in 1×HBS-EP buffer. The samples were injected over activated surfaces with a 10 min association and 15 min dissociation. The data was collected using Biacore® T200 Control Software version 2.0.1 and analyzed using Biacore® T200 Evaluation Software version 3.0 (GE Healthcare Life Sciences).
row,Non-specific binding (RU),Binder
1,26.4,B1
2,42,B2
3,32.8,B3
4,39.5,B4
5,40.3,B5
6,43.5,B6
7,45.7,B7
8,48.4,B8
9,42.6,B9
10,32.8,B10

# Biological target: T5, chicken egg white lysozyme (chicken, UniProt P00698 19-147)
# T5 construct: unrelated positively charged protein, amine-coupled to the chip; also called Lysozyme (positive)
# T5 sequence (P00698 19-147): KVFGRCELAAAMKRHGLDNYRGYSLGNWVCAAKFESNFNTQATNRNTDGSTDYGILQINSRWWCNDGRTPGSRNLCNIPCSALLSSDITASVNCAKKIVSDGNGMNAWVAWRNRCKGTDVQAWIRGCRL
# Assay: SPR, 1 µM binder over immobilized lysozyme
# Procedure: as §7, §8
row,Non-specific binding (RU),Binder
1,12.4,B1
2,8.1,B2
3,6.6,B3
4,7.8,B4
5,8.2,B5
6,7.9,B6
7,8.1,B7
8,9.8,B8
9,8.2,B9
10,7.2,B10

# Biological target: T6, Human B7H1 (human, UniProt Q9NZQ7 20-239)
# T6 construct: also called HuB7H1; huB7-H1
# T6 sequence (Q9NZQ7 other isoform, or with tags, fused parts or gaps limits assumed): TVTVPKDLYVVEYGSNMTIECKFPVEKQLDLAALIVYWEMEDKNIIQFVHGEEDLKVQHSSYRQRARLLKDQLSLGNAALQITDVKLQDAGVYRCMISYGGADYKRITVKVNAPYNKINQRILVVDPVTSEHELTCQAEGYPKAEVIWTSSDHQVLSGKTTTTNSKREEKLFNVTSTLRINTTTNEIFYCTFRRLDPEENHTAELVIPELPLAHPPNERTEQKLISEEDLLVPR
# Assay: SPR, binder captured on Protein A/G, HuB7H1 analyte
# Procedure: as §1, §2, §3
row,binding result,Binder
1,no binding (tested: 1 µM),B1
2,no binding (tested: 1 µM),B2
3,no binding (tested: 1 µM),B3
4,no binding (tested: 1 µM),B4
5,no binding (tested: 1 µM),B5
6,no binding (tested: 1 µM),B6
7,no binding (tested: 1 µM),B7
8,no binding (tested: 1 µM),B8
9,no binding (tested: 1 µM),B9
10,no binding (tested: 1 µM),B10
